# Measured values reported in patent US8084228B2, “Nogo-B receptor antagonists” (Yale University, priority 2006, dated 2011).
# T1: Nogo receptor (Homo sapiens, UniProt Q9BZR6)
# T1 construct: expressed in transfected cells; host or cells: COS-7
# T1 sequence (Q9BZR6 27-447): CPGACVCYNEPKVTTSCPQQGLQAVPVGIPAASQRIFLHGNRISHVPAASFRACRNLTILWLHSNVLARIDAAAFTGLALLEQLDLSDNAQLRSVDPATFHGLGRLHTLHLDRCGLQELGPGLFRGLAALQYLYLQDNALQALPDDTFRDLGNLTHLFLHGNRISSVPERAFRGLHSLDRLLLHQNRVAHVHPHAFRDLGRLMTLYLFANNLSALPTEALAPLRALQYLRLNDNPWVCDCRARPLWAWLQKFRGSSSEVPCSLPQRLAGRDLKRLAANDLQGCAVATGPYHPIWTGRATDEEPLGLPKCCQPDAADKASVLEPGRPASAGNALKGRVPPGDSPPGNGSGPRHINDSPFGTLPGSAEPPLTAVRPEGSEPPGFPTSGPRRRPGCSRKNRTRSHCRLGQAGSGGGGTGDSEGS
# T2: NgBR (Homo sapiens, UniProt Q96E22)
# T2 sequence (Q96E22 1-293): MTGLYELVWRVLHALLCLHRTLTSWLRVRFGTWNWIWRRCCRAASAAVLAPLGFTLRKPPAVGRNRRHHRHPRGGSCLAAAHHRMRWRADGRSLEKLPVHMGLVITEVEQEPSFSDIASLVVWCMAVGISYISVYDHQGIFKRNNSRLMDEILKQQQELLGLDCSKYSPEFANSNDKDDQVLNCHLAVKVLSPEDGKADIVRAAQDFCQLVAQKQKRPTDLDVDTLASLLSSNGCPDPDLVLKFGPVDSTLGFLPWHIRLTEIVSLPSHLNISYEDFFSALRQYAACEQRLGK
# Columns and labels:
# Endothelial cells = test: Am-Nogo-B-induced migration of endothelial cells, inhibition by NgBR ectodomain peptides or fusion protein; type: cell-based; details: peptide 200 nM, Am-Nogo-B 100 nM
# Protocol: (§1) Cell migration was examined in modified Boyden chambers using 10 nM each of purified recombinant AP, AP fusion of Nogo-66 (AP-Nogo-66) or Am-Nogo-B. The transwell inserts (Costar transwell inserts; Corning) were coated with a solution of 0.1% gelatin (Sigma) in PBS at 4° C. overnight and then air-dried. VEGF at 50 ng/mL (1.1 nM) or recombinant Am-Nogo-B at various concentrations dissolved in medium 199 containing 0.1% BSA was added in the bottom chamber of the Boyden apparatus. HUVEC (200,000 cells) suspended in a 100 μL aliquot of medium 199 containing 0.1% BSA was added to the upper chamber. After 5 hours incubation, cells on both sides of the membrane were fixed and stained with a Diff-Quik staining kit (Baxter Healthcare, Miami, Fla.). The average number of cells from five randomly chosen high-power (×400) fields on the lower side of the membrane was counted.
# Endothelial cells were incubated with vehicle (control) of one of peptides P1-P4 (200 nM each) in the presence of Am-Nogo-B (100 nM).
# Similarly, treatment of endothelial cells with mFc-ecto, but not mFc, blocked Am-Nogo-B-induced cell migration (FIG. 35).
# HUVEC [1] = test: AP-Am-Nogo-B binding to HUVEC after siRNA transfection; type: cell-based, human; details: 72 hours after siRNA transfection
# Protocol: (§2) To detect AP-Am-Nogo-B binding, cultures were washed with Hanks' balanced salt solution (HBSS) containing 20 mM HEPES, pH 7.5, and 1 mg/mL BSA (HBH). The plates were then incubated with AP-Am-Nogo-B in DMEM containing 20 mM Hepes, pH 7.5, and 1 mg/mL BSA for 2 hours at 4° C. The bound AP-Am-Nogo-B was detected by using the Blue Substrate kit (Vector Laboratories). The blue staining was examined by using the ODYSSEY Infrared Imaging System (Li-Cor, Lincoln, Nebr.) and confirmed by microscopy. Alternatively, the bound AP-Am-Nogo-B was extracted with Triton X-100, and AP activity was colorimetrically quantified by using p-nitrophenyl phosphate (Sigma) as substrate after heat inactivation of endogenous AP. Non-specific binding was determined by measuring binding in the presence of a 100-fold molar excess of recombinant Am-Nogo-B lacking the AP fusion protein. Specific binding was determined by subtracting the non-specific binding from total binding. For determination of apparent Kd, the binding of AP-Am-Nogo-B was measured in triplicate as described above and the Kd value was quantified by using the Scatchard plot program of GraphPad PRISM (one-site binding, linear regression) using the ratio of bound ligand to free ligand as the y axis and bound ligand (pM) as the x axis.
# (§3) NgBR siRNA oligonucleotides (SEQ ID NOS:2-5) with 3′ dTdT overhangs were synthesized by Qiagen. Control siRNA in experiments refers to a nonsilencing (NS) siRNA (NS forward: UUCUCCGAACGUGUCACGU, SEQ ID NO:7; NS reverse: ACGUGACACGUUCGGAGAA, SEQ ID NO:8) designed and synthesized by Qiagen. HUVEC and CHO stable cell lines were transfected with siRNA by using Oligofectamine. Quantification of NgBR mRNA and protein, ligand binding assay, and migration assay were performed at 72 hours after transfection.
# NgBR mRNA = NgBR mRNA by quantitative PCR after siRNA transfection of HUVEC; type: cell-based, human; details: 72 hours after transfection, normalized to 18S
# Protocol: as §3
# Total RNA from cells was isolated by using the RNeasy kit (Qiagen). Reverse transcription was then performed by using 100 ng of RNA and the Superscript First-Strand Synthesis System kit (Invitrogen). Real-time PCR analysis was done with the iCycler iQ detection system using the iQ SYBR green Supermix kit (Bio-Rad). The NgBR mRNA level was normalized by housekeeping gene 18S. The following primers were used for NgBR: forward, 5′-[…]-3′ (SEQ ID NO:9) and reverse, 5′-[…]-3′ (SEQ ID NO:10). The following primers were used for 18S: forward, 5′-[…]-3′ (SEQ ID NO:11) and reverse, 5′-[…]-3′ (SEQ ID NO:12).
# Nogo receptor = molecular target: T1, Nogo receptor; test: AP fusion protein binding to COS cells transfected with cDNA encoding the Nogo receptor; details: COS cells (FIG. 6)
# Protocol: as §2
# (§4) For expression cloning of Am-Nogo-B receptor, pools of 5,000 arrayed clones from a human heart cDNA library (OriGene Technologies, Rockville, Md.) were transfected into COS-7 cells, and AP-Am-Nogo-B binding was assessed by using AP versus AP-Am-Nogo-B binding and detection of the AP product by near-infrared cell imaging (Li-Cor, Lincoln, Nebr.) or AP activity assays.
# HUVEC [2] = test: HUVEC migration in modified Boyden chambers; type: cell-based, human; details: 10 nM purified recombinant protein, 5 hours
# Protocol: The migratory response of human umbilical vein endothelial cells (HUVEC) in response to a gradient of recombinant, purified alkaline phosphatase (AP) fusion protein expressing Am-Nogo-B or a recombinant purified Am-Nogo-B was examined. HUVEC were cultured in M199 with 20% FBS and endothelial cell growth supplement (ECGS).
# as §1
# NgBR [3] = molecular target: T2, NgBR; test: AP fusion protein binding to CHO cells expressing NgBR; set-up: an isolated cDNA encoding NgBR is 2,636 base pairs encoding an open reading frame of 293 amino acids; expressed in transfected cells; details: for surface binding of AP fusion domains to NgBR-expressing cells: CHO cells expressing NgBR (FIGS. 11, 14)
# Protocol: as §2
# A recombinant AP-Am-Nogo-B fusion protein was used to screen a cDNA expression library from human heart (500,000 independent clones) transfected into COS or CHO cells using Lipofectamine 2000 (Invitrogen). COS-7 cells were cultured in high-glucose DMEM with 10% FBS. CHO cells were cultured in MEM-α with 5% FBS.
# NgBR [4] = molecular target: T2, NgBR; test: AP fusion protein binding to COS cells transfected with the isolated NgBR cDNA; set-up: an isolated cDNA encoding NgBR is 2,636 base pairs encoding an open reading frame of 293 amino acids; expressed in transfected cells; host or cells: COS-7 (A4); details: COS cells (FIG. 6)
# Protocol: as §2, §4
# Single NgBR cDNA clones were isolated by sib selection and sequenced. […] The HA-tagged NgBR was immunoisolated with anti-HA immunobeads (Roche, Indianapolis, Ind.) and associated proteins analyzed by Western blotting. For the Western blots, expression of NgBR-HA was detected by using anti-HA (Roche) and NgBR (Imgenex), respectively, and beta-actin (Sigma) or Hsp90 (BD Biosciences-Pharmingen) was used to control for loading.
# HUVEC [5] = test: Binding of AP fusion proteins to the surface of HUVEC; set-up: species or system human; details: HUVEC (FIGS. 12, 15)
# Protocol: as §2
surface binding of AP fusion domains to NgBR-expressing cells (NgBR [3]),surface binding of AP fusion domains to HUVEC (HUVEC [5]),Molecule,Am-Nogo-B-induced migration of endothelial cells in presence of peptide (Endothelial cells),other results
,,P2: NgBR ectodomain peptide LAPLGFTLRKPPAVGRNRRHHRHPRGGSCL (SEQ ID NO: 14) (listed as Homo sapiens),effectively reduced,
,,"PP2: truncated version of P2, TLRKPPAVGRNRRHHRHPRG (SEQ ID NO: 18) (listed as Homo sapiens)",nearly identical to that of P2,
,,"nonsilencing RNA: nonsilencing (NS) control siRNA by Qiagen; forward UUCUCCGAACGUGUCACGU (SEQ ID NO:7) (antisense ACGUGACACGUUCGGAGAA; listed as RNA, chemistry not given here) [reference compound]",,binding of AP-Am-Nogo-B to HUVEC (HUVEC [1]): not; level of NgBR mRNA (NgBR mRNA): not
,,scrambled version of P2: scrambled P2 control PGRHLKPSRFNARLHGPCRVLRAHGPLTRG (SEQ ID NO: 17) (scrambled version of SEQ ID NO 14) [reference compound],did not block,
,,P4: NgBR ectodomain peptide ADGRSLEKLPVHMGLVITEVEQEPSFSD (SEQ ID NO: 16) (listed as Homo sapiens),to a lesser extent,
did not bind,did not bind,"AP-Nogo-66: AP fusion of Nogo-66, a 66 amino acid residue loop in the RHD (protein, left off: large carriers, AP fusion of Nogo-66, a 66 amino acid residue loop in the RHD) RIYKGVIQAIQKSDEGHPFRAYLESEVAISEELVQKYSNSALGHVNCTIKELRRLFLVDDLVDSLK",,"binding to COS cells transfected with Nogo receptor cDNA (Nogo receptor): selectively bind; HUVEC migration (HUVEC [2]): does not promote; binding to CHO cells stably expressing NgBR (NgBR [3]; increasing concentrations, 2 hours at 4° C.): not; binding to COS cells transfected with the isolated NgBR cDNA (NgBR [4]): not"
did not bind,did not bind,"AP-Nogo-A (59-172): AP fusion with biologically active domain 59-172 of Nogo-A (protein, left off: large carriers) PAAGLSAAPVPTAPAAGAPLMDFGNDFVPPAPRGPLPAAPPVAPERQPSWDPSPVSSTVPAPSPLSAAAVSPSKLPEDDEPPARPPPPPPASVSPQAEPVWTPPAPAPAAPPST",,
did not bind,did not bind,"AP-Nogo-B (amino acids 1-180): AP fusion with amino acids 1-180 of Nogo-B (protein, left off: large carriers, AP fusion with amino acids 1-180 of Nogo-B) MEDLDQSPLVSSSDSPPRPQPAFKYQFVREPEDEEEEEEEEEEDEDEDLEELEVLERKPAAGLSAAPVPTAPAAGAPLMDFGNDFVPPAPRGPLPAAPPVAPERQPSWDPSPVSSTVPAPSPLSAAAVSPSKLPEDDEPPARPPPPPPASVSPQAEPVWTPPAPAPAAPPSTPAAPKRRG",,
did,did,"Ap-Nogo-B (61-200): AP fusion with amino acids 61-200 of Nogo-B (protein, left off: large carriers, AP fusion with amino acids 61-200 of Nogo-B) AGLSAAPVPTAPAAGAPLMDFGNDFVPPAPRGPLPAAPPVAPERQPSWDPSPVSSTVPAPSPLSAAAVSPSKLPEDDEPPARPPPPPPASVSPQAEPVWTPPAPAPAAPPSTPAAPKRRGSSGSVVVDLLYWRDIKKTGV",,
